# From publication PMC10165364, “Pathological variants in TOP3A cause distinct disorders of mitochondrial and nuclear genome stability”
# T1: TOP3A WT (Homo sapiens, UniProt Q13472 16-934)
# T1 sequence: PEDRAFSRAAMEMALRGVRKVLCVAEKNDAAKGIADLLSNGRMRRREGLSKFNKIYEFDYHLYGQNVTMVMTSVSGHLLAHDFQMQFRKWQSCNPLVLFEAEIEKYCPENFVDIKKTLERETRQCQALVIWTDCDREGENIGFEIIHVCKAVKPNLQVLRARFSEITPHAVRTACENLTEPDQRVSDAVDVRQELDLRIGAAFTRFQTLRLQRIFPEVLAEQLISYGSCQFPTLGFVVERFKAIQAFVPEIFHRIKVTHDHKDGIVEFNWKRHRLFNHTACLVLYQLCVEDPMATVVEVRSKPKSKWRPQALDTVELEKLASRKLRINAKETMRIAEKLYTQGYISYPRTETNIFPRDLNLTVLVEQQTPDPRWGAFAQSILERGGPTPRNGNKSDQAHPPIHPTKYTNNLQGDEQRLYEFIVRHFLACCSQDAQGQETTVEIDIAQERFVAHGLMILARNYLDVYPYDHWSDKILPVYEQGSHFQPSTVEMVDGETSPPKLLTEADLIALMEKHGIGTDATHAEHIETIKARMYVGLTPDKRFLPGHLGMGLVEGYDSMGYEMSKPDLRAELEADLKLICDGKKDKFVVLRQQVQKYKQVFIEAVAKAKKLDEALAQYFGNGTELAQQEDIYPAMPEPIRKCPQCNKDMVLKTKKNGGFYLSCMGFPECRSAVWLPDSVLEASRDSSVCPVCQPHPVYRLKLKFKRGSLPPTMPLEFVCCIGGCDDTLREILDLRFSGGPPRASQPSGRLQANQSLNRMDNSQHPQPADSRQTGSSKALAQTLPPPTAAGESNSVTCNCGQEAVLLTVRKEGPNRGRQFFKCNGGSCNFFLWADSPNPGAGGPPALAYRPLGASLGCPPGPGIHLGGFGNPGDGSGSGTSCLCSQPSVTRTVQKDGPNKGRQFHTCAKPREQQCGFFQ
# B1: EMSA substrate 80-mer (ssDNA)
# DNA: ACCACATTAACAACATAAAACCCTCATTCACACGAGAAAACACCCTCATGTTCATACACCTATCCCCCATTCTCCTCCTA
# Molecular target: T1, TOP3A WT
# Test: EMSA; two shifted bands (two TOP3A molecules); 25 mM HEPES pH 7.5, 70 mM NaCl, 100 ug/ml BSA, 1 mM DTT, 10% glycerol; 10 fmol oligo, 0-250 fmol TOP3A in 20 ul; 37 C 15 min, then ice; 8% native PAGE in 0.5x TBE at 4 C
# Conditions: protein: recombinant; tags: N-terminal TEV-cleavable 6xHis, cleaved; label: 5' 32P; single strand
binder,measurement,value
B1,binding result,binds
